# B1: sh04009DH/PH protein (SEQ ID NO: 6) with FLAG-tag (3x) at the C-terminal (protein)
# chain: MEELSENSSSTPSEEQDEEASQSRHRHCENKQQMRTNVIREIMDTERVYIKHLRDICEGYIRQCRKHTGMFTVAQLATIFGNIEDIYKFQRKFLKDLEKQYNKEEPHLSEIGSCFLQNQEGFAIYSEYCNNHPGACLELANLMKQGKYRHFFEACRLLQQMIDIAIDGFLLTPVQKICKYPLQLAELLKYTTQEHGDYSNIKAAYEAMKNVACLINERKRKLESIDKIARWQVSIVGWEGLDILDRSSELIHSGELTKITKQGKSQQRTFFLFDHQLVSCKKDLLRRDMLYYKGRLDMDEMELVDLGDGRDKDCNLSVKNAFKLVSRTTDEVYLFCAKKQEDKARWLQACADERRRVQEDKEMGMEISENQKKLAMLNAQKAGHGKSKGYNRCPVAPPHQGLHPIHQRHITMPTSVPQQQVFGLAEPKRKSSLFWHTFNRLTPFRK
# Biological target: Cdc42 (SEQ ID NO: 12) expressed as an N-terminal 3x FLAG-tagged protein
protein,measurement,value
B1,"effector pull-down assay: amount of active (GTP-bound) Cdc42 bound to the PAK-1 effector bead, Western blot with anti-FLAG antibody","In the cell lysate (lane 4 in FIG. 2) prepared from the cells in which the sh04009DH/PH protein was co-expressed with Cdc42, the band was detected more strongly that in the cell lysate (lane 2 in FIG. 2) prepared from the cells in which only Cdc42 was expressed"
